# Results as given in the nanobody polyreactivity screen of Harvey et al. (2022).
# Test: yeast display, Sf9 membrane polyspecificity reagent, FACS + sequencing; frameworks hold sequencing errors
# Summary of the method: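 Nanobodies came from a synthetic yeast display library in Saccharomyces cerevisiae BJ5465, induced with galactose for 36–48 hours and stained for 1 hour at 4 °C with 10% biotinylated, detergent-solubilized Sf9 membrane reagent. Cells were enriched on streptavidin microbeads and then FACS-sorted, with low and high (top ~1%) gates set on anti-HA fluorescence for expression and streptavidin fluorescence for reagent binding. Each polyreactivity label reflects the gate a clone came from. Genes were amplified by colony PCR, sequenced by MiSeq 2 × 250 and filtered by CDR length.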
row,Sequence,polyreactivity (PSR sort gate)
1,QVQLVESGGGLVQAGGSLRLSCAASGRTFVFNAMGWYRQAPGKERELVAAISARGGRTYYADSVKGRFTISRDNAKNTVYLQMNSLKPEDTAVYYCATVPYPNRKVGVDYWGQGTQVTVSS,high polyreactivity
2,QVQLVESGGGLVQAGGSLRLSCAASGRTFVFNAMGWYRQAPGKERELVAAITKNGGSTYYADSVKGRFTISRDNAKNTVYLQMNSLKPEDTAVYYCAVRRGYPFYYWGQGTQVTVSS,low polyreactivity
3,QVQLVESGGGLVQAGGSLRLSCAASGRTFVFYAMGWYIQAPGKERELVASISDGDRTNYADSVKGRFTISRDNAKNTVYLQMNSLKPEDTAVYYCAADREFWWEVVYTYEYYYWGQGTQVTVSS,low polyreactivity
4,QVQLVESGGGLVQAGGSLRLSCAASGRTFVFYAMGWYRQAPGKERELVAAITSSGRTKYADSVKGRFTISRDNAKNTVYLQMNSLKPEDTAVYYCAVLRWPGLDYYWGQGTQVTVSS,high polyreactivity
5,QVQLVESGGGLVQAGGSLRLSCAASGRTFVGNAMGWYRQAPGKEREFVAAITSRTGSTYYADSVKGRFTISRDNAKYTVYLQMNSLKPEDTAVYYCATPYYQNVYSRKAYNYWGQGTQVTVSS,high polyreactivity
6,QVQLVESGGGLVQAGGSLRLSCAASGRTFVGNAMGWYRQAPGKERELVADITWSGDITYYADSVKGRFTISRDNAKNTVYLQKNSLKPEDTAVYYCAADYHRRRTDYDYWGQGTQVTVSS,low polyreactivity
7,QVQLVESGGGLVQAGGSLRLSCAASGRTFVGYAMGWYRQAPGKERELVAAISGSGVRTYYADSVKGRFTISRDNAKNTVYLQMNSLKPEDTAVYYCAVRQGWYNFRYDYWGQGTQVTVSS,high polyreactivity
8,QVQLVESGGGLVQAGGSLRLSCAASGRTFVHNAMGWYRQAPGKERELVAVITSGARTTYADSVKGRFTISRDNAKNTVYLQMNSLKPEDTAVYYCAAGTFSVIFSYKYRHYYYWGQGTQVTVSS,low polyreactivity
9,QVQLVESGGGLVQAGGSLRLSCAASGRTFVINSMGWYRQAPGKERELVAAITWGGGSTYYADSVKGRFTISRDNAKNTVYLQMNSLKPEDTAVYYCATSYSVQYGGSGYYWGQGTQVTVSS,low polyreactivity
10,QVQLVESGGGLVQAGGSLRLSCAASGRTFVKYAMGWYRQAPGKERELVAAISSRGSSTYYADSVKGRFTISRDNAKNTVYLQMNSLKPEETAVYYCNAVYYYNPGYDYWGQGTQVTVSS,high polyreactivity
11,QVQLVESGGGLVQAGGSLRLSCAASGRTFVNNAMGWYRQAPGKERELVAAISQSGSRTYYADSVKRRFTISRDNAKNSVYLQMNSLNTEDTAVYDCAARGARSSTSDDWGQGTQVTVSS,high polyreactivity
12,QVQLVESGGGLVQAGGSLRLSCAASGRTFVNYTMGWYRQAPGKERELVAAIRYRDGSTYYADSVKGRFTISRDNAKNTVYLQMNSLKPEDTAVYYCDTRITQVGDYIYDYWGQGTQGTVSS,low polyreactivity
13,QVQLVESGGGLVQAGGSLRLSCAASGRTFVPYAMGWYRQAPGKEREFVAAISSRVGSTYYADSVKGRFTISRDNAKNTVYLQMNSLKPEDTAVYYCNAPFKPAGFYSAWKYDYWGQGTQVTVSS,low polyreactivity
14,QVQLVESGGGLVQAGGSLRLSCAASGRTFVPYAMGWYRQAPGKERELVAAISSSGGSTYYADSVKGRFTISRDNAKNTVYLQMNSLKPDDTAVYYCAAKSRKGGEYWGQGTQVTVSS,high polyreactivity
15,QVQLVESGGGLVQAGGSLRLSCAASGRTFVPYAMGWYRQAPGKERELVAAISWSSVSTYYADSVKGRFTISRDNAKNTVYLQMNSLKPEDTAVYYCAAEYYTRVAEYYYWGQGTQVTVSS,high polyreactivity
16,QVQLVESGGGLVQAGGSLRLSCAASGRTFVQYVMGWYRQAPGKERELVARISSGGSTFYADSVKGRFTISRDNAKNTVYLQMNSLKPEDTAVYYCAAQWTRYRRRPMDYWGQGTQVTVSS,high polyreactivity

row,Sequence,polyreactivity (PSR sort gate)
1,QVQLVESGGGLVQAGGSLRLSCAASGRTFVRYAMGWYRQAPGKERELVAAISRTGGTTYYADSVKGRFTISRDNAKNTVYLQMNSLKPEDTAVYYCNADPFYKYGYWGQGTQVTVSS,high polyreactivity
2,QVQLVESGGGLVQAGGSLRLSCAASGRTFVRYAMGWYRQAPGKERELVAAISWSGGSTYYADSVKGRFTISRDNAKNTVYLQMNSLKPEDTAVYYCAADDETPSSHEEDYWGQGTQVTVSS,high polyreactivity
3,QVQLVESGGGLVQAGGSLRLSCAASGRTFVRYAMGWYRQAPGKERELVAAITRRGGSTYYADSVKGRFTISRDNAKNTVYLQMNSLKPEDTAVYYCNKAVGVTGFDYWGQGTQVTVSS,high polyreactivity
4,QVQLVESGGGLVQAGGSLRLSCAASGRTFVRYAMGWYSQAPGKERELVAAISGIATRTYYADSVKGRFTISRDNAKNTVYLQMNSLKPEDTAVYYCNALYAKYDYWGQGTQVTVSS,high polyreactivity
5,QVQLVESGGGLVQAGGSLRLSCAASGRTFVSNAMGWYRQAPGKERELVAAITQSGGSTYADSVKGRFTISRDNAKNTVYLQLNSLKPEDTAVYYCNSEHAFVGTYYERHDYWGQGTQVTVSS,low polyreactivity
6,QVQLVESGGGLVQAGGSLRLSCAASGRTFVSNAMGWYRQAPGKERELVAGINWTDDSTYYADSVKGRFTISRDNAKNTVYLQINSLKPEDTAVYYCAADSLEFAWPRFDYWGQGTQVTVSS,low polyreactivity
7,QVQLVESGGGLVQAGGSLRLSCAASGRTFVSNDMGWYRQAPGKERELVATISSGASTYYADSVKGRFTISRDNAKNTVYLQMNSLKPEDTAVYYCAAEVLVFGGGYDYWGQGTQVTVSS,low polyreactivity
8,QVQLVESGGGLVQAGGSLRLSCAASGRTFVSYAMGWYRQAPGKERELVAAISGSGGSTYYADSVKGRFTISPDNAKKTGYLQMNSLKPEDTAVYYCHKGRPRKVNSEGFGYWGQGTQVTVSS,high polyreactivity
9,QVQLVESGGGLVQAGGSLRLSCAASGRTFVTNAMGWYRQAPGKERELVAAISGTGGSTYYADSVKGRFTISRDNAKNTVYLQMNSLKPEDTAVYYCNKDYHVRYYYWGQGTLVTVSS,low polyreactivity
10,QVQLVESGGGLVQAGGSLRLSCAASGRTFVTNAMGWYRQAPGKERELVAAISSSGGSTYYADSVKGRFTISRDKAKNTVYLQMNSLKPEDTAVYYCAVGGQTKGQYDYWGQGTQVTVSS,low polyreactivity
11,QVQLVESGGGLVQAGGSLRLSCAASGRTFVTYAMGWYRQAPGKEREFVAAISRNGGSTYYADSVKGRFTISRDNAKNTVYLQMNSLKPEDTAVYYCAAYAYIFLDWGGYPYYLYEYDYWGQGTQVTVSS,low polyreactivity
12,QVQLVESGGGLVQAGGSLRLSCAASGRTFVTYAMGWYRQAPGKEREFVAAITWSTGTSTYYADSVKGRFTISRDNAKNTVYLQMNSLKPEDTAVYYCAVDIWWPTWYYIYWGQGTQVTVSS,low polyreactivity
13,QVQLVESGGGLVQAGGSLRLSCAASGRTFVTYAMGWYRQAPGKEREFVASISSDSGNTYYADSVKGRFTISRDNAKNTLYFQMNSLKPEDTAVYYCARRKVRYWSYPAAHYYWGQGTQVTVSS,low polyreactivity
14,QVQLVESGGGLVQAGGSLRLSCAASGRTFVVNAMGWYRQAPGKEREFVAAISYRGDSTYYADSVKGRFTISRDNAKNTVYLQMNSLKPEDTAVYYCAAQYRYGRYTRDYWGQGTQVTVSS,high polyreactivity
15,QVQLVESGGGLVQAGGSLRLSCAASGRTFVVNAMGWYRQATGKERELVAAITRRGGITYYADSVKGRFTISRDTAKNTVYFQMNSLKPEDTAVLYCAADRSYYPDTRSTYGYNYWGQGTQVTVSS,low polyreactivity
16,QVQLVESGGGLVQAGGSLRLSCAASGRTFVVNVMGWYRQAPGKERELVAAISSVVSTNYADSVKGRFTISRDNAKNTVYLQMNCLKPEDTAVYYCAADVRGAYSTYLYTTTIRYDYWGQGTQVTVSS,low polyreactivity
